Consider 22 sequences from the supplement of paper PMC9170038.

In this series the test system is MS2 coat protein. Nature of the series: apparent KD of MS2 coat protein; designed switch direction (-1 OFF switch, 1 ON switch): 1; higher = weaker reporter binding. The essentials: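 Normalised cluster fluorescence was curve-fitted, and each design's median over clusters is its apparent KD. Before this, SNAP-549-labelled MS2 coat protein was titrated from 0.7 or 1.5 nM, doubling to 3 µM, over RNA switches transcribed on Illumina chips by stalled E. coli RNA polymerase. Titrations had no input, 200 uM small-molecule ligand, or an oligonucleotide input, and steps lasted 0.8–1.5 h (lowest) to 10–20 min (highest).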

The mark [1] stands for this setting: Eterna round: R95, input ligand: FMN 200 uM.
The mark [2] stands for this setting: Eterna round: R95, input ligand: microRNA oligo, concentration not stated.
Where [3] appears, read: Eterna round: R95, input ligand: none.
Setting [4] is: input ligand: microRNA oligo, concentration not stated.

As to “AUAAGGCAAGCUUUUUUCUCGUAGUAUAAACAUGAGGAUCACCCAUGUGCCCACCCUGGAUCUUUGGAUCGCAGAAC [Vetera] (puzzle: Sensor for hsa-mir-208a)”, the “apparent KD of MS2 coat protein” value is, setting by setting: under setting [1], 26.8 nM; under setting [2], 16.5 nM; under setting [3], 26.3 nM.

For “AUAAGGCAAGCUUUUUUCUCGUAGUGUAAACAUGAGGAUCACCCAUGUGCCCACCCUAGAUCUUUGGAUCGCAGAAC [Atrageus] (puzzle: Sensor for hsa-mir-208a)”, the “apparent KD of MS2 coat protein” value by setting is: under setting [1], 22.8 nM; under setting [2], 16.8 nM; under setting [3], 26.8 nM.

For the sequence “AUAAGGCAAGCUUUUUUCUCGUAGUGUAAACAUGAGGAUCACCCAUGUGCUCGCCCUGGAUCUUUGGAUCGCAGAAA [Geedbigexe] (puzzle: Sensor for hsa-mir-208a)”, the “apparent KD of MS2 coat protein” value under setting [1] was determined as 46.7 nM, the “apparent KD of MS2 coat protein” value under setting [2] was determined as 18.6 nM and the “apparent KD of MS2 coat protein” value under setting [3] stood at 45.3 nM.

On to “AUAAGUUCGAUGCUCGUCUCUCCGUACAAACAUGAGGAUCACCCAUGUGAUCGGGCAGUAGCCCGAUCAGUAUGGCC [Soriin] (puzzle: Sensor for hsa-mir-208a)”, for which the “apparent KD of MS2 coat protein” value reads like this: under setting [1], 39.3 nM; under setting [2], 20.5 nM; under setting [3], 47.8 nM.

Turning to “AUAAGUUUGAUGCUCGUCUCUCCGUACAAACAUGAGGAUCACCCAUGUGGUCGGGAAGUAGCCCAGCCAGUAUGGCC [Anriquradi] (puzzle: Sensor for hsa-mir-208a)”, the “apparent KD of MS2 coat protein” value by setting is: under setting [1], 15.3 nM; under setting [2], 19.9 nM; under setting [3], 17.1 nM.

“AUAAUAAUAACUGAGGAUAUGUUGAUAAAGACAUGAGGAUCACCCAUGUGAAAUAAAAUAAUAAUACAGAAGGCAGAAUAAUAAA [JMF's solution 1] (puzzle: Same State 2)”: the “apparent KD of MS2 coat protein” value reads like this: under setting [1], 23 nM; under setting [2], 29.7 nM; under setting [3], 25.7 nM.

As to “AUACAGGAGCCACAUGAGGAUCACCCAUGUGACACGCAAAUGAAGGAUAUCCGACUCCAGACGAGGGAGAAGGUCACGGCGGGC [Eternabot solution 13] (Eterna round: R96, puzzle: Same State NG 3)”, the “apparent KD of MS2 coat protein” value came to 16.6 nM (input ligand: FMN 200 uM), 11.5 nM under setting [4] and 20.1 nM (input ligand: none).

Consider “AUACAUGAGGAUCACCCAUGUAAUUAAUUAACUAGUAAGAUCUAGGAUAUCAGCUCGAUUAGAGCUGAGAAGGAGAUCACAUGU [SSNG3/21-A2] (Eterna round: R96, puzzle: Same State NG 3)”, for which, under setting [4], the “apparent KD of MS2 coat protein” value came to 29.3 nM.

Regarding “AUACAUGAGGAUCACCCAUGUAAUUAAUUAAUUAAUAAGAUCUAGGAUAUCAGCUCGAAUAGAGCUGAGAAGGAGAUCACAUGU [SSNG3/21-B1] (Eterna round: R96, puzzle: Same State NG 3)”, the “apparent KD of MS2 coat protein” value under setting [4] is 19.4 nM.

For the sequence “AUACAUGAGGAUCACCCAUGUAAUUAAUUAAUUAAUAAGAUCUAGGAUAUCAGCUCGAUUAGAGCUGAGAAGGAGAUCACAUGU [SSNG3/21-B2] (Eterna round: R96, puzzle: Same State NG 3)”, the “apparent KD of MS2 coat protein” value under setting [4] came out at 16.8 nM.

With “AUACAUGAGGAUCACCCAUGUGAGCAGAGAUAUCUGAUGUACAAGGAUAUCCGAGGGAUCCCGAUGGAGAAGGUGUGCCACCUG [Eternabot solution 22] (Eterna round: R96, puzzle: Same State NG 3)”, the “apparent KD of MS2 coat protein” value stood at 57.1 nM (input ligand: FMN 200 uM), 43 nM under setting [4] and 55.9 nM (input ligand: none).

Regarding “AUACCAUCGGGAGGAUAUGGCACCUUAUUGGUGCCAGAAGGUCCAACAUGAGGAUCACCCAUGUGGGAGUGGUCUAAUGACCAC [Fiskers NG1ss - 28] (Eterna round: R96, puzzle: Same State NG 1)”, the “apparent KD of MS2 coat protein” value reads like this: (input ligand: FMN 200 uM) 121 nM; under setting [4], 120 nM; (input ligand: none) 171 nM.

As for “AUACUCAUGUAAGGAUAUGCAGCCGAAACGGCUGCAGAAGGUACUAUAAUACAUGAGGAUCACCCAUGUCAAAAUAAAAUAGUU [Mat - Same State NG 1 - JL mod - D100] (Eterna round: R96, puzzle: Same State NG 1)”, the “apparent KD of MS2 coat protein” value (input ligand: FMN 200 uM) amounted to 20.6 nM, the “apparent KD of MS2 coat protein” value under setting [4] is 25.4 nM and the “apparent KD of MS2 coat protein” value (input ligand: none) was 25 nM.

As for “AUAUAACAUGAGGAUCACCCAUGUCAACAAAGUCGAGGAUAUGGGCAAAUAAAAUAAGAACCAGAAGGCGAAUAAU [salish99_ss1_r3_047] (Eterna round: R96, puzzle: Same State 1)”, the “apparent KD of MS2 coat protein” value under setting [4] was determined as 189 nM.

On to “AUAUAACAUGAGGAUCACCCAUGUCAACAAAGUCGAGGAUAUGGGCAAAUAAAAUAAGAACCAGAAGGCGAAUAAU [salish99_ss1_r3_047] (puzzle: Same State 1)”, for which the “apparent KD of MS2 coat protein” value reads like this: under setting [1], 42.2 nM; under setting [2], 462 nM; under setting [3], 693 nM.

For the sequence “AUAUAACAUGAGGAUCACCCAUGUCACUAAAGUCGAGGAUAUGGGCAGGUUAUAUCCGAACCAGAAGGCGAAUUAU [SS1 Teenbexe 6] (Eterna round: R96, puzzle: Same State 1)”, the “apparent KD of MS2 coat protein” value worked out at 41 nM (input ligand: FMN 200 uM), 221 nM under setting [4] and 208 nM (input ligand: none).

Consider “AUAUAACAUGAGGAUCACCCAUGUCACUAAAGUCGAGGAUAUGGGCAGGUUAUAUCCGAACCAGAAGGCGAAUUAU [SS1 Teenbexe 6] (puzzle: Same State 1)”, for which the “apparent KD of MS2 coat protein” value under setting [2] was determined as 163 nM.

For the sequence “AUAUGAGAAGCAGGAUAUGCGGAGAAGAAAGAAGCAGAAGGGCUUAUGGGACAACAUGAGGAUCACCCAUGUUCUCUGCGAUGA [AK SSNG1-V2-3.1] (Eterna round: R96, puzzle: Same State NG 1)”, the “apparent KD of MS2 coat protein” value (input ligand: FMN 200 uM) is 60.6 nM, the “apparent KD of MS2 coat protein” value under setting [4] was 148 nM and the “apparent KD of MS2 coat protein” value (input ligand: none) turned out to be 135 nM.

Turning to “AUAUGAGAAGCAGGAUAUGUGAAAAAAAAACAUACAGAAGGGUUUAUGGGACAACAUGAGGAUCACCCAUGUUCUCUGUGAUGA [AK SSNG1-V2-1.1] (Eterna round: R96, puzzle: Same State NG 1)”, under setting [4], the “apparent KD of MS2 coat protein” value stood at 59.2 nM.

“AUAUGAGAAGCAGGAUAUGUGGAGAAGAAACAAACAGAAGGGCUUAUGGGACAACAUGAGGAUCACCCAUGUUCUCUGUGAUGA [ssng1 a] (Eterna round: R96, puzzle: Same State NG 1)”: the “apparent KD of MS2 coat protein” value is 47.9 nM (input ligand: FMN 200 uM), 137 nM under setting [4] and 240 nM (input ligand: none).

Consider “AUAUGAGGAGCAGGAUAUGCGAAGAAGAAAGAAGCAGAAGGGCUCAUGGGACGACAUGAGGAUCACCCAUGUACUUCGCGAUGA [AK SSNG1-V2-6] (Eterna round: R96, puzzle: Same State NG 1)”, for which the “apparent KD of MS2 coat protein” value by setting is: (input ligand: FMN 200 uM) 133 nM; under setting [4], 278 nM; (input ligand: none) 538 nM.

For the sequence “AUCCGGAGAAAACAAAUCCGACAUGAGGAUCACCCAUGUACACAGGAUAUCAGCCCGUUGAGGGCUGAGAAGGGUGGCCGAGUG [Cexeati] (Eterna round: R96, puzzle: Same State NG 3)”, the “apparent KD of MS2 coat protein” value is, setting by setting: (input ligand: FMN 200 uM) 267 nM; under setting [4], 72.7 nM; (input ligand: none) 130 nM.
